From patent US20230147840A1 (Chugai, published 2023)
Where two headings read alike, the source gives them in different places.

T1: Human CD3eg linker (human)
T1 construct: Single-chain soluble construct; also called recombinant human CD3
T1 chain: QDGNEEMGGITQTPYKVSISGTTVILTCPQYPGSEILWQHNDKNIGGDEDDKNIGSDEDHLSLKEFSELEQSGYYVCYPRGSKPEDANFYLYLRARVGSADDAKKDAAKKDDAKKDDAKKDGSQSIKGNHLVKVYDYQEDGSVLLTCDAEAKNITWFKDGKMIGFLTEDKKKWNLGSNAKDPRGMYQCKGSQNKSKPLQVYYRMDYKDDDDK

B1: xGPC3/DualAE05-xSG1350k1349hV11 (bispecific antibody, V domains shown)
VH 1: QVQLVQSGAEVKKPGASVTVSCKASGYTFTDYEMHWIRQPPGEGLEWIGAIDGPTPDTAYSEKFKGRVTLTADKSTSTAYMELSSLTSEDTAVYYCTRFYSYTYWGQGTLVTVSS
VL 1: DIVMTQSPLSLPVTPGEPASISCRSSQPLVHSNRNTYLHWYQQKPGQAPRLLIYKVSNRFSGVPDRFSGSGSGTDFTLKISRVEAEDVGVYYCGQGTQVPYTFGQGTKLEIK
VH 2: QVQLVESGGGLVQPGRSLRLSCAASGFKFSNVWFHWVRQAPGKGLEWVAQIKDYYNAYAAYYAPSVKGRFTISRDDSKNSIYLQMNSLKTEDTAVYYCHYVHYASASTLLPAEGVDAWGQGTTVTVSS
VL 2: DIVMTQSPLSLPVTPGEPASISCQPSQEVVHMNRNTYLHWYQQKPGQAPRLLIYKVSNRFPGVPDRFSGSGSGTDFTLKISRVEAEDVGVYYCAQGTSHPFTFGQGTKLEIK
notes: 1+1 tri-specific, CrossMab format (VH/VL of the GPC3 arm exchanged, charge mutations in CH1/CL of the Dual arm); also called xGPC3/DualAE05-xSG1350kSG1349hV11; AE05 CrossMab
B2: H1572L0581 (antibody, V domains shown)
VH: QVQLVESGGGLVQPGRSLRLSCAASGFKFSNVWFHWVRQAPGKGLEWVAQIKDKYNAYAAYYAPSVKGRFTISRDDSKNSIYLQMNSLKTEDTAVYYCHYVHYASASTLLPAEGVDAWGQGTTVTVSS
VL: DIVMTQSPLSLPVTPGEPASISCQPSQEVVHMNRNTYLHWYQQKPGQAPRLLIYKVSNRFPGVPDRFSGSGSGTDFTLKISRVEAEDVGVYYCAQGTSHPFTFGQGTKLEIK
notes: Dual-Ig with an Fc; also called DualAE26; dBBDu183H1572/dBBDu072L0581
B3: GPC3/DualAE05-SG1364k1363hV11 (bispecific antibody, V domains shown)
VH 1: QVQLVQSGAEVKKPGASVTVSCKASGYTFTDYEMHWIRQPPGEGLEWIGAIDGPTPDTAYSEKFKGRVTLTADKSTSTAYMELSSLTSEDTAVYYCTRFYSYTYWGQGTLVTVSS
VL 1: DIVMTQSPLSLPVTPGEPASISCRSSQPLVHSNRNTYLHWYQQKPGQAPRLLIYKVSNRFSGVPDRFSGSGSGTDFTLKISRVEAEDVGVYYCGQGTQVPYTFGQGTKLEIK
VH 2: QVQLVESGGGLVQPGRSLRLSCAASGFKFSNVWFHWVRQAPGKGLEWVAQIKDYYNAYAAYYAPSVKGRFTISRDDSKNSIYLQMNSLKTEDTAVYYCHYVHYASASTLLPAEGVDAWGQGTTVTVSS
VL 2: DIVMTQSPLSLPVTPGEPASISCQPSQEVVHMNRNTYLHWYQQKPGQAPRLLIYKVSNRFPGVPDRFSGSGSGTDFTLKISRVEAEDVGVYYCAQGTSHPFTFGQGTKLEIK
notes: 1+1 tri-specific, FAST-Ig format; Same variable regions as m28, different constant-region charge mutations; Full chains not tied by name
B4: GPC3/DualAE05-SG1363k1364hV11 (bispecific antibody, V domains shown)
VH 1: QVQLVQSGAEVKKPGASVTVSCKASGYTFTDYEMHWIRQPPGEGLEWIGAIDGPTPDTAYSEKFKGRVTLTADKSTSTAYMELSSLTSEDTAVYYCTRFYSYTYWGQGTLVTVSS
VL 1: DIVMTQSPLSLPVTPGEPASISCRSSQPLVHSNRNTYLHWYQQKPGQAPRLLIYKVSNRFSGVPDRFSGSGSGTDFTLKISRVEAEDVGVYYCGQGTQVPYTFGQGTKLEIK
VH 2: QVQLVESGGGLVQPGRSLRLSCAASGFKFSNVWFHWVRQAPGKGLEWVAQIKDYYNAYAAYYAPSVKGRFTISRDDSKNSIYLQMNSLKTEDTAVYYCHYVHYASASTLLPAEGVDAWGQGTTVTVSS
VL 2: DIVMTQSPLSLPVTPGEPASISCQPSQEVVHMNRNTYLHWYQQKPGQAPRLLIYKVSNRFPGVPDRFSGSGSGTDFTLKISRVEAEDVGVYYCAQGTSHPFTFGQGTKLEIK
notes: 1+1 tri-specific, FAST-Ig format
B5: H1579L0581 (antibody, V domains shown)
VH: QVQLVESGGGLVQPGRSLRLSCAASGFKFSHVWFHWVRQAPGKGLEWVAQIKDKYNAYAAYYAPSVKGRFTISRDDSKNSIYLQMNSLKTEDTAVYYCHYVHYASASTLLPAFGVDAWGQGTTVTVSS
VL: DIVMTQSPLSLPVTPGEPASISCQPSQEVVHMNRNTYLHWYQQKPGQAPRLLIYKVSNRFPGVPDRFSGSGSGTDFTLKISRVEAEDVGVYYCAQGTSHPFTFGQGTKLEIK
notes: Dual-Ig with an Fc; also called DualAE25; dBBDu183H1579/dBBDu072L0581
B6: H1573L0581 (antibody, V domains shown)
VH: QVQLVESGGGLVQPGRSLRLSCAASGFKFSNVWFHWVRQAPGKGLEWVAQIKDYYNAYAAYYAPSVKGRFTISRDDSKNSIYLQMNSLKTEDTAVYYCHYVHYASASTLLPAFGVDAWGQGTTVTVSS
VL: DIVMTQSPLSLPVTPGEPASISCQPSQEVVHMNRNTYLHWYQQKPGQAPRLLIYKVSNRFPGVPDRFSGSGSGTDFTLKISRVEAEDVGVYYCAQGTSHPFTFGQGTKLEIK
notes: Dual-Ig with an Fc; also called DualAE07; dBBDu183H1573/dBBDu072L0581
B7: H1595L0581 (antibody, V domains shown)
VH: QVQLVESGGGLVQPGRSLRLSCAASGFKFSNTWMHWVRQAPGKGLEWVAQIKDKYNAYAAYYAPSVKGRFTISRDDSKNSIYLQMNSLKTEDTAVYYCHYIHYASASTLLPAFGVDAWGQGTTVTVSS
VL: DIVMTQSPLSLPVTPGEPASISCQPSQEVVHMNRNTYLHWYQQKPGQAPRLLIYKVSNRFPGVPDRFSGSGSGTDFTLKISRVEAEDVGVYYCAQGTSHPFTFGQGTKLEIK
notes: Dual-Ig with an Fc; also called DualAE24; dBBDu183H1595/dBBDu072L0581
B8: H1644L0939 (antibody, V domains shown)
VH: QVQLVESGGGLVQPGRSLRLSCAASGFVFSNVWFHWVRQAPGKGLEWVAQIKDYYNAYAAYYAPSVKGRFTISRDDSKNSIYLQMNSLKTEDTAVYYCHYVHYASASTLLPAEGVDAWGQGTTVTVSS
VL: DIVMTQSPLSLPVTPGEPASISCQPSQEVVHMNRNTYLHWYQQKPGQAPRLLIYKVSNVFPGVPDRFSGSGSGTDFTLKISRVEAEDVGVYYCAQGTHHPFTFGQGTKLEIK
notes: Dual-Ig with an Fc; also called DualAE16; dBBDu183H1644/dBBDu072L0939
B9: H0888L0581 (antibody, V domains shown)
VH: QVQLVESGGGLVQPGRSLRLSCAASGFKFSNVWMHWVRQAPGKGLEWVAQIKDKWNAYAAYYAPSVKGRFTISRDDSKNSIYLQMNSLKTEDTAVYYCHYIHYASASTLLPAFGIDAWGQGTTVTVSS
VL: DIVMTQSPLSLPVTPGEPASISCQPSQEVVHMNRNTYLHWYQQKPGQAPRLLIYKVSNRFPGVPDRFSGSGSGTDFTLKISRVEAEDVGVYYCAQGTSHPFTFGQGTKLEIK
notes: Dual-Ig with an Fc; also called DualAE02; dBBDu183H0888/dBBDu072L0581
B10: H0883 (antibody, V domains shown)
VH: QVQLVESGGGLVQPGRSLRLSCAASGFTFSNAWMHWVRQAPGKGLEWVAQIKDKGNAYAAYYAPSVKGRFTISRDDSKNSIYLQMNSLKTEDTAVYYCRYVHYASASTLLPAFGVDAWGQGTTVTVSS
VL: DIVMTQSPLSLPVTPGEPASISCQASQELVHMNRNTYLHWYQQKPGQAPRLLIYKVSNRFPGVPDRFSGSGSGTDFTLKISRVEAEDVGVYYCAQGTSVPFTFGQGTKLEIK
notes: Dual-Ig with an Fc; also called DualAE27; dBBDu183H0883/dBBDu072L

Tests used:
[1] = target: T1, Human CD3eg linker; assay: SPR Biacore 8K, Ab captured on anti-human Fc, CD3 as analyte, 25 C
Experimental: (§1) Binding affinity of Dual-Ig antibodies to human CD3 were assessed at 25 degrees C. using Biacore 8K instrument (GE Healthcare). Anti-human Fc (GE Healthcare) was immobilized onto all flow cells of a CM4 sensor chip using amine coupling kit (GE Healthcare). Antibodies were captured onto the anti-Fc sensor surfaces, then recombinant human CD3 or CD137 was injected over the flow cell. All antibodies and analytes were prepared in ACES pH 7.4 containing 20 mM ACES, 150 mM NaCl, 0.05% Tween 20, 0.005% NaN₃. Sensor surface was regenerated each cycle with 3M MgCl₂. […] CD137 binding affinity assay was conducted in same condition except assay temperature was set at 37 degrees C.

[2] = target: T2, Human CD137 extracellular domain (ECD) (human); assay: SPR Biacore 8K, Ab captured on anti-human Fc, CD137 as analyte, 37 C
T2 construct: also called Human CD137 ECD; recombinant human CD137
Experimental: as §1

[3] = target: T1, Human CD3eg linker; assay: SPR Biacore 8K, Ab captured on anti-human Fc, CD3 as analyte, 25 C
Experimental: (§2) Binding affinity of Dual-Fab antibodies (Dual-Ig) to human CD3 were assessed at 25 degrees C. using Biacore 8K instrument (GE Healthcare). Anti-human Fc (GE Healthcare) was immobilized onto all flow cells of a CM4 sensor chip using amine coupling kit (GE Healthcare). Antibodies were captured onto the anti-Fc sensor surfaces, then recombinant human CD3 or CD137 was injected over the flow cell. All antibodies and analytes were prepared in ACES pH 7.4 containing 20 mM ACES, 150 mM NaCl, 0.05% Tween 20, 0.005% NaN₃. Sensor surface was regenerated each cycle with 3M MgCl₂. […] CD137 binding affinity assay was conducted in same condition except assay temperature was set at 37 degrees C.

[4] = target: T2, Human CD137 extracellular domain (ECD); assay: SPR Biacore 8K, Ab captured on anti-human Fc, CD137 as analyte, 37 C; remark: listed apart in the source
Experimental: as §2

[5] = target: T2, Human CD137 extracellular domain (ECD); assay: SPR Biacore 8K, 37 C; reference xGPC3/DualAE05-xSG1350kSG1349hV11
Experimental: as §1
This is caused by faster off rate in FAST-Ig construct. […] This is caused by faster off rate in FAST-Ig construct.

T2 sequence (chain, as listed by the source limits assumed): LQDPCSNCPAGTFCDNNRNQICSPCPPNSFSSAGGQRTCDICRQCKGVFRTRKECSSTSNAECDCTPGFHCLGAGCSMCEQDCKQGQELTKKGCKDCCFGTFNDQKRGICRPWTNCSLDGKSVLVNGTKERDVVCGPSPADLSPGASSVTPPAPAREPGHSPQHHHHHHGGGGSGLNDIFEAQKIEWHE

Binder	Kd [1] [nM]	koff [1] [s⁻¹]	kon [1] [M⁻¹ s⁻¹]	Kd [2] [nM]	koff [2] [s⁻¹]	kon [2] [M⁻¹ s⁻¹]	Kd [3] [nM]	koff [3] [s⁻¹]	kon [3] [M⁻¹ s⁻¹]	Kd [4] [nM]	koff [4] [s⁻¹]	kon [4] [M⁻¹ s⁻¹]	fold weaker binding affinity than CrossMab prepared antibodies [5] [fold]
B1	296	0.0275	92900	40.5	0.000525	13000	–	–	–	–	–	–	–
B2	–	–	–	–	–	–	286	0.028	97700	52.1	0.000722	13900	–
B3	282	0.0263	93400	54.7	0.000745	13600	–	–	–	–	–	–	~2
B4	314	0.0278	88500	79.5	0.00102	12800	–	–	–	–	–	–	~2
B5	–	–	–	–	–	–	273	0.034	124000	275	0.00406	14800	–
B6	–	–	–	–	–	–	158	0.0188	121000	70.6	0.00103	14600	–
B7	–	–	–	–	–	–	57	0.00658	116000	195	0.00269	13800	–
B8	–	–	–	–	–	–	1450	0.0808	55800	36.8	0.000444	12100	–
B9	–	–	–	–	–	–	20.2	0.00192	95000	208	0.00311	15000	–
B10	–	–	–	–	–	–	110	0.00999	90700	–	–	–	–
